Data as given in US20230346966A1.

Target: recombinant human TfR1 (human) (UniProt P02786)
Test: SPR (Carterra LSA), IgG captured, TfR1 injected, 25 C

Chain of recombinant human TfR1 (human) (P02786 89-760 limits assumed): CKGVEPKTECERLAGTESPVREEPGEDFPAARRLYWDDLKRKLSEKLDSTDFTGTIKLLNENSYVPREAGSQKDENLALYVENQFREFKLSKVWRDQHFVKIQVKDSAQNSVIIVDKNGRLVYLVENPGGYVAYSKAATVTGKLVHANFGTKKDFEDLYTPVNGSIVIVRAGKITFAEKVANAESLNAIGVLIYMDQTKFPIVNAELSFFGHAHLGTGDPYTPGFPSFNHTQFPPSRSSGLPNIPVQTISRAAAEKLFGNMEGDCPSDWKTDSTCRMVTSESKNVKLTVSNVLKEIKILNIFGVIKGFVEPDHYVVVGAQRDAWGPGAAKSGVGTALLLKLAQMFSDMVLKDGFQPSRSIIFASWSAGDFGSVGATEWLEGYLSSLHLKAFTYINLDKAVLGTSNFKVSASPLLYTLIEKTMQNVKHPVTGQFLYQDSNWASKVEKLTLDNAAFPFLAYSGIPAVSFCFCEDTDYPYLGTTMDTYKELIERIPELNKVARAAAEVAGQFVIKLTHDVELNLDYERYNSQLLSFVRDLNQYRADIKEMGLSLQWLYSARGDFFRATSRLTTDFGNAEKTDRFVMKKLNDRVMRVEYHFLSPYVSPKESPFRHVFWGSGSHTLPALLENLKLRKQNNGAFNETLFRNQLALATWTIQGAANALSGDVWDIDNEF

Kd: 0.536 nM
kon: 774000 M⁻¹ s⁻¹
Substance: OKT9 mIgG (control) (antibody)
